{"source": "patent US20180291353A1", "about": "“MONOFUNCTIONAL ALDEHYDE AND ALCOHOL DEHYDROGENASES FOR PRODUCTION OF FUELS AND COMMODITY CHEMICALS” (The Regents of the University of California, priority 2015, published 2018)", "key": {"[1]": {"substrate": "CC(=O)SCCNC(=O)CCNC(=O)[C@H](O)C(C)(C)COP(=O)(O)OP(=O)(O)OC[C@H]1O[C@@H](n2cnc3c(N)ncnc32)[C@H](O)[C@@H]1OP(=O)(O)O", "assay": "purified protein, by the assay type", "settings": "other: 100 μM NADH, 100 mM Tris, 1 mM DTT, pH 7.5, 30° C., mean±s.e. (n=3)"}, "[2]": {"substrate": "CCCC(=O)SCCNC(=O)CCNC(=O)[C@H](O)C(C)(C)COP(=O)(O)OP(=O)(O)OC[C@H]1O[C@@H](n2cnc3c(N)ncnc32)[C@H](O)[C@@H]1OP(=O)(O)O", "assay": "purified protein, by the assay type", "settings": "other: 100 μM NADH, 100 mM Tris, 1 mM DTT, pH 7.5, 30° C., mean±s.e. (n=3)"}}, "data": [{"protein": "AdhE2-ALDH (aldehyde dehydrogenase domain of bifunctional AdhE2, wild type, GI 499193180, SEQ ID NO: 41) (Clostridium acetobutylicum) (protein) MKVTNQKELKQKLNELREAQKKFATYTQEQVDKIFKQCAIAAAKERINLAKLAVEETGIGLVEDKIIKNHFAAEYIYNKYKNEKTCGIIDHDDSLGITKVAEPIGIVAAIVPTTNPTSTAIFKSLISLKTRNAIFFSPHPRAKKSTIAAAKLILDAAVKAGAPKNIIGWIDEPSIELSQDLMSEADIILATGGPSMVKAAYSSGKPAIGVGAGNTPAIIDESADIDMAVSSIILSKTYDNGVICASEQSILVMNSIYEKVKEEFVKRGSYILNQNEIAKIKETMFKNGAINADIVGKSAYIIAKMAGIEVPQTTKILIGEVQSVEKSELFSHEKLSPVLAMYKVKDFDEALKKAQRLIELGGSGHTSSLYIDSQNNKDKVKEFGLAMKTSRTFINMPSSQGASGDLYNFAIAPSFTLGCGTWGGNSVSQNVEPKHLLNIKSVAERRENMLWFKVPQKIYFKYGCLRFALKELKDMNKKRAFIVTDKDLFKLGYVNKITKVLDEIDIKYSIFTDIKSDPTIDSVKKGAKEMLNFEPDTIISIGGGSPMDAAKVMHLLYEYPEAEIENLAINFMDIRKRICNFPKLGTKAISVAIPTTAGTGSEATPFAVITNDETGMKYPLTSYELTPNMAIIDTELMLNMPRKLTAATGIDALVHAIEAYVSVMATDYTDELALRAIKMIFKYLPRAYKNGTNDIEAREKMAHASNIAGMAFANAFLGVCHSMAHKLGAMHHVPHGIACAVLIEEVIKYNATDCPTKQTAFPQYKSPNAKRKYAEIAEYLNLKGTSDTEKVTALIEAISKLKIDLSIPQNISAAGINKKDFYNTLDKMSELAFDDQCTTANPRYPLISELKDIYIKSF", "values": [{"measurement": "Km", "setting": "[1]", "value": "100 ± 10", "unit": "µM"}, {"measurement": "kcat", "setting": "[1]", "value": 1.3, "unit": "s⁻¹"}, {"measurement": "kcat/Km", "setting": "[1]", "value": 13000, "unit": "M⁻¹ s⁻¹"}, {"measurement": "Km", "setting": "[2]", "value": "10 ± 1", "unit": "µM"}]}]}
